The RNAGym collection of RNA variant scans (doi:10.7554/elife.90254)

B1: LINE1-mini (parent)
chain: GGCAGAGCUCAACACAGCGUGGCAAAGUGGCUGUGGCUAGACUGCC

Variants of: B1
Experiment: self-cleavage, relative activity (ratio to wild type); higher = more cleavage; in vitro, sequencing; the parent is a self-cleaving ribozyme
For GGCAGAGCUCAACACAGCGUGGCAGAGUGGCUGUAGCUAGACUGCC [A25G G35A], the self-cleavage was 0.11.
GGCAGAGCUCAACACAGCGUGGCAGAGUGGCUGUCGCUAGACUGCC [A25G G35C] gave a self-cleavage of 0.04.
Work on GGCAGAGCUCAACACAGCGUGGCAGAGUGGCAGUGGCUAGACUGCC [A25G U32A] yielded a self-cleavage of 0.11.
GGCAGAGCUCAACACAGCGUGGCAGAGUGGCGGUGGCUAGACUGCC [A25G U32G] gave a self-cleavage of 0.12.
Variant GGCAGAGCUCAACACAGCGUGGCAGAGUGGCCGUGGCUAGACUGCC [A25G U32C] has a self-cleavage of 0.06.
GGCAGAGCUCAACACAGCGUGGCAGAGUGGCUGUGGCUAGACAGCC [A25G U43A] showed a self-cleavage of 0.13.
Work on GGCAGAGCUCAACACAGCGUGGCAGAGUGGCUGUGGCUAGACCGCC [A25G U43C] yielded a self-cleavage of 0.1.
In the case of GGCAGAGCUCAACACAGCGUGGCAUAGUGGCUGUGGCUAGUCUGCC [A25U A41U], the self-cleavage is reported as 0.6.
GGCAGAGCUCAACACAGCGUGGCAUAGUGGCUGUGGCUAGGCUGCC [A25U A41G] gave a self-cleavage of 0.38.
GGCAGAGCUCAACACAGCGUGGCAUAGUGGCUGUGGCUAGCCUGCC [A25U A41C] showed a self-cleavage of 0.07.
With GGCAGAGCUCAACACAGCGUGGCAUAGUGGGUGUGGCUAGACUGCC [A25U C31G] the self-cleavage was 0.1.
Variant GGCAGAGCUCAACACAGCGUGGCAUAGUGGUUGUGGCUAGACUGCC [A25U C31U] has a self-cleavage of 0.23.
Variant GGCAGAGCUCAACACAGCGUGGCAUAGUGGAUGUGGCUAGACUGCC [A25U C31A] has a self-cleavage of 0.13.
For GGCAGAGCUCAACACAGCGUGGCAGAGUGGGUGUGGCUAGACUGCC [A25G C31G], the self-cleavage was 0.27.
Variant GGCAGAGCUCAACACAGCGUGGCAGAGUGGUUGUGGCUAGACUGCC [A25G C31U] has a self-cleavage of 0.13.
Work on GGCAGAGCUCAACACAGCGUGGCAGAGUGCCUGUGGCUAGACUGCC [A25G G30C] yielded a self-cleavage of 1.19.
With GGCAGAGCUCAACACAGCGUGGCAGAGUGUCUGUGGCUAGACUGCC [A25G G30U] the self-cleavage was 0.89.
For GGCAGAGCUCAACACAGCGUGGCAGAGUGACUGUGGCUAGACUGCC [A25G G30A], the self-cleavage was 0.97.
For GGCAGAGCUCAACACAGCGUGGCAGACUGGCUGUGGCUAGACUGCC [A25G G27C], the self-cleavage was 0.16.
Work on GGCAGAGCUCAACACAGCGUGGCAGAUUGGCUGUGGCUAGACUGCC [A25G G27U] yielded a self-cleavage of 0.48.
GGCAGAGCUCAACACAGCGUGGCAGAAUGGCUGUGGCUAGACUGCC [A25G G27A] gave a self-cleavage of 0.37.
GGCAGAGCUCAACACAGCGUGGCAUUGUGGCUGUGGCUAGACUGCC [A25U A26U] gave a self-cleavage of 1.23.
GGCAGAGCUCAACACAGCGUGGCAUCGUGGCUGUGGCUAGACUGCC [A25U A26C] showed a self-cleavage of 1.79.
GGCAGAGCUCAACACAGCGUGGCAUGGUGGCUGUGGCUAGACUGCC [A25U A26G] gave a self-cleavage of 0.71.
Variant GGCAGAGCUCAACACAGCGUGGCAUAGUCGCUGUGGCUAGACUGCC [A25U G29C] has a self-cleavage of 0.38.
GGCAGAGCUCAACACAGCGUGGCAUAGUUGCUGUGGCUAGACUGCC [A25U G29U] gave a self-cleavage of 2.16.
With GGCAGAGCUCAACACAGCGUGGCAUAGUAGCUGUGGCUAGACUGCC [A25U G29A] the self-cleavage was 0.79.
With GGCAGAGCUCAACACAGCGUGGCAUAGGGGCUGUGGCUAGACUGCC [A25U U28G] the self-cleavage was 0.82.
GGCAGAGCUCAACACAGCGUGGCAUAGAGGCUGUGGCUAGACUGCC [A25U U28A] showed a self-cleavage of 0.5.
Variant GGCAGAGCUCAACACAGCGUGGCAUAGCGGCUGUGGCUAGACUGCC [A25U U28C] has a self-cleavage of 1.19.
In the case of GGCAGAGCUCAACACAGCGUGGCAUAGUGGCUGUGUCUAGACUGCC [A25U G36U], the self-cleavage is reported as 0.07.
For GGCAGAGCUCAACACAGCGUGGCAUAGUGGCUGUGCCUAGACUGCC [A25U G36C], the self-cleavage was 0.05.
GGCAGAGCUCAACACAGCGUGGCAUAGUGGCUGUGACUAGACUGCC [A25U G36A] showed a self-cleavage of 0.12.
With GGCAGAGCUCAACACAGCGUGGCAGAGUGGCUAUGGCUAGACUGCC [A25G G33A] the self-cleavage was 0.04.
For GGCAGAGCUCAACACAGCGUGGCAGAGUGGCUUUGGCUAGACUGCC [A25G G33U], the self-cleavage was 0.05.
GGCAGAGCUCAACACAGCGUGGCAGAGUGGCUCUGGCUAGACUGCC [A25G G33C] gave a self-cleavage of 0.04.
In the case of GGCAGAGCUCAACACAGCGUGGCAGAGUGGCUGUGGCCAGACUGCC [A25G U38C], the self-cleavage is reported as 0.14.
Variant GGCAGAGCUCAACACAGCGUGGCAGAGUGGCUGUGGCGAGACUGCC [A25G U38G] has a self-cleavage of 0.01.
GGCAGAGCUCAACACAGCGUGGCAGAGUGGCUGUGGCAAGACUGCC [A25G U38A] showed a self-cleavage of 0.46.
GGCAGAGCUCAACACAGCGUGGCAUAGUGGCUGUGGCUAGACUACC [A25U G44A] gave a self-cleavage of 0.28.
In the case of GGCAGAGCUCAACACAGCGUGGCAUAGUGGCUGUGGCUAGACUCCC [A25U G44C], the self-cleavage is reported as 0.29.
With GGCAGAGCUCAACACAGCGUGGCAUAGUGGCUGUGGCUAGACUUCC [A25U G44U] the self-cleavage was 0.4.
For GGCAGAGCUCAACACAGCGUGGCAGAGUGGCUGUGGCUAAACUGCC [A25G G40A], the self-cleavage was 0.04.
GGCAGAGCUCAACACAGCGUGGCAGAGUGGCUGUGGCUACACUGCC [A25G G40C] gave a self-cleavage of 0.06.
Work on GGCAGAGCUCAACACAGCGUGGCAGAGUGGCUGUGGCUAUACUGCC [A25G G40U] yielded a self-cleavage of 0.07.
With GGCAGAGCUCAACACAGCGUGGCAGAGUGGCUGUGGUUAGACUGCC [A25G C37U] the self-cleavage was 0.06.
In the case of GGCAGAGCUCAACACAGCGUGGCAGAGUGGCUGUGGAUAGACUGCC [A25G C37A], the self-cleavage is reported as 0.05.
For GGCAGAGCUCAACACAGCGUGGCAGAGUGGCUGUGGGUAGACUGCC [A25G C37G], the self-cleavage was 0.03.
GGCAGAGCUCAACACAGCGUGGCAUAGUGGCUGUGGAUAGACUGCC [A25U C37A] gave a self-cleavage of 0.06.
Work on GGCAGAGCUCAACACAGCGUGGCAUAGUGGCUGUGGGUAGACUGCC [A25U C37G] yielded a self-cleavage of 0.02.
With GGCAGAGCUCAACACAGCGUGGCAUAGUGGCUGUGGUUAGACUGCC [A25U C37U] the self-cleavage was 0.03.
Variant GGCAGAGCUCAACACAGCGUGGCAUAGUGGCUGUGGCUAGACUGUC [A25U C45U] has a self-cleavage of 2.13.
With GGCAGAGCUCAACACAGCGUGGCAUAGUGGCUGUGGCUAGACUGGC [A25U C45G] the self-cleavage was 0.19.
With GGCAGAGCUCAACACAGCGUGGCAUAGUGGCUGUGGCUAGACUGAC [A25U C45A] the self-cleavage was 0.41.
GGCAGAGCUCAACACAGCGUGGCAUAGUGGCUGUGGCAAGACUGCC [A25U U38A] showed a self-cleavage of 0.6.
GGCAGAGCUCAACACAGCGUGGCAUAGUGGCUGUGGCCAGACUGCC [A25U U38C] showed a self-cleavage of 0.31.
